Assay results from patent US20050079516A1, “Chromosome stability assay” (The Board of Trustees of the University of Illinois, priority 2003, published 2005).

Columns and labels:
chromatin strands = assay: degradation of chromatin strands with other endonucleases; format: biochemical; settings: isolated chromatin strands
[1] = tested on: chromatin strands from normal human microvascular endothelial cells; assay: proteinase K treatment of isolated chromatin strands; format: biochemical; settings: normal endothelial cell chromatin; proteinase K 5 mg/ml, 5 minutes
Experimental: (§1) FIGS. 2D and 2E illustrate the effects of treatment of chromatin strands from normal human microvascular endothelial cells and invasive HT1080 fibrosarcoma cells with proteinase K under the conditions described above except that proteinase K (5 mg/ml) was substituted for ALU and the incubation time was reduced from 60 minutes to 5 minutes.

[2] = tested on: chromatin strands from invasive HT1080 fibrosarcoma cells; assay: as above; format: biochemical, human; settings: proteinase K 5 mg/ml, 5 minutes
Experimental: as §1

Molecule	correlation of chromatin cleavage pattern with invasive potential of the cell (chromatin strands)	chromatin dispersion (FIGS. 2D, 2E) [1]	chromatin dispersion (FIGS. 2D, 2E) [2]
RNase A: nuclease (protein, UniProt P61823 27-150, looked up) Ribonuclease pancreatic: KETAAAKFERQHMDSSTSAASSSNYCNQMMKSRNLTKDRCKPVNTFVHESLADVQAVCSQKNVACKNGQTNCYQSYSTMSITDCRETGSSKYPNCAYKTTQANKHIIVACEGNPYVPVHFDASV	does not exhibit chromatin cleavage patterns that correlate with the invasive potential	–	–
proteinase K: protease proteinase K, chromatin modifying agent (protein, UniProt P06873 106-384, looked up) Proteinase K: AAQTNAPWGLARISSTSPGTSTYYYDESAGQGSCVYVIDTGIEASHPEFEGRAQMVKTYYYSSRDGNGHGTHCAGTVGSRTYGVAKKTQLFGVKVLDDNGSGQYSTIIAGMDFVASDKNNRNCPKGVVASLSLGGGYSSSVNSAAARLQSSGVMVAVAAGNNNADARNYSPASEPSVCTVGASDRYDRRSSFSNYGSVLDIFGPGTSILSTWIGGSTRSISGTSMATPHVAGLAAYLMTLGKTTAASACRYIADTANKGDLSNIPFGTVNLLAYNNYQA	–	remained largely intact	extensively dispersed
